Measurements from paper PMC8487046, “Insights into the ligand binding specificity of SREC‐II (scavenger receptor expressed by endothelial cells)” (FEBS Open Bio, 2021).

B1: SREC‐II(44‐442), extracellular domain of scavenger receptor expressed by endothelial cells II (domain or fragment)
chain: QELNPRGRNVCRAPGSQVPTCCAGWRQQGDECGIAVCEGNSTCSENEVCVRPGECRCRHGYFGANCDTKCPRQFWGPDCKELCSCHPHGQCEDVTGQCTCHARRWGARCEHACQCQHGTCHPRSGACRCEPGWWGAQCASACYCSATSRCDPQTGACLCHAGWWGRSCNNQCACNSSPCEQQSGRCQCRERTFGARCDRYCQCFRGRCHPVDGTCACEPGYRGKYCREPCPAGFYGLGCRRRCGQCKGQQPCTVAEGRCLTCEPGWNGTKCDQPCATGFYGEGCSHRCPPCRDGHACNHVTGKCTRCNAGWIGDRCETKCSNGTYGEDCAFVCADCGSGHCDFQSGRCLCSPGVHGPHCNVTCPPGLHGADCAQACSCHEDTCDPVTGACHLETNQRKGLIK
modifications: N‐terminal glutamine 44 converted to pyroglutamate; N‐glycosylated (extra mass of 11.3 kDa)
notes: SREC-II (encoded by SCARF2), extracellular moiety; 3 amino acids (Leu-Ile-Lys) between Gly442 and the 8 His residues; also called SREC‐II ectodomain; soluble SREC‐II; not shown: His8, C-terminal, kept
B2: recombinant human calreticulin (CRT) (natural protein, UniProt P27797 18-417, looked up)
chain: EPAVYFKEQFLDGDGWTSRWIESKHKSDFGKFVLSSGKFYGDEEKDKGLQTSQDARFYALSASFEPFSNKGQTLVVQFTVKHEQNIDCGGGYVKLFPNSLDQTDMHGDSEYNIMFGPDICGPGTKKVHVIFNYKGKNVLINKDIRCKDDEFTHLYTLIVRPDNTYEVKIDNSQVESGSLEDDWDFLPPKKIKDPDASKPEDWDERAKIDDPTDSKPEDWDKPEHIPDPDAKKPEDWDEEMDGEWEPPVIQNPEYKGEWKPRQIDNPDYKGTWIHPEIDNPEYSPDPSIYAYDNFGVLGLDLWQVKSGTIFDNFLITNDEAYAEEFGNETWGVTKAAEKQMKDKQDEEQRLKEEEEDKKRKEEEEAEDKEDDEDKDEDEEDEEDKEEDEEEDVPGQAKDEL
notes: calreticulin, human; source: recombinant, produced according to published procedures [6, 9]

Tests used:
[1] = biological target: T1, complement C1q, purified human (human, UniProt P02745 23-245; P02746 28-253; P02747 29-245); assay: SPR; C1q immobilized (18 700 RU, CM5, amine coupling; BSA as reference surface), serially diluted SREC-II(44-442) injected; TBS-Ca-P; 20 µL/min; 25 °C; global fit, 1:1 Langmuir model; apparent KD; conditions: both partners purified
T1 construct: MW used: 459 300 g/mol; source: purified human C1q, prepared as described previously [8]; copies: + +
T1 sequence (P02745 23-245, chain 1 of 3): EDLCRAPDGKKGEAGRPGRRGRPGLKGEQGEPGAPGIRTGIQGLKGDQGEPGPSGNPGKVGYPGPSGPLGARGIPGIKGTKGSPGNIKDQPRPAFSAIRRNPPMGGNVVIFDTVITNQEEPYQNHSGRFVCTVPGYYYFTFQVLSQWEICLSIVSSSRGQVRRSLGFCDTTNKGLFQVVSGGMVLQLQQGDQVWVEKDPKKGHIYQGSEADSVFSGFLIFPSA
T1 sequence (P02746 28-253, chain 2 of 3): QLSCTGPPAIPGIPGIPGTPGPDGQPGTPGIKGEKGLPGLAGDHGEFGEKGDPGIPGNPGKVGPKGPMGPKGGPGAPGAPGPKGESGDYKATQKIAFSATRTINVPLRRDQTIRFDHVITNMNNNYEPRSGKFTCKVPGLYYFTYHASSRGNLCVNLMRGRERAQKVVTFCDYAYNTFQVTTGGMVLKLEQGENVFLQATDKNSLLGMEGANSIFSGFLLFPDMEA
T1 sequence (P02747 29-245, chain 3 of 3): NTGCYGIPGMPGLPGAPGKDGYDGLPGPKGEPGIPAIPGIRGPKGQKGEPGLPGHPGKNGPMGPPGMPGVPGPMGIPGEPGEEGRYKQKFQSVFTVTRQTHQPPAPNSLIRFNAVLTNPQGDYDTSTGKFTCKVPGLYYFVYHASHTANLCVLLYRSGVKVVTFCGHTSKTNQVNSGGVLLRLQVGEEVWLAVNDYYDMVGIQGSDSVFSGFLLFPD

[2] = biological target: B1; assay: SPR; SREC-II(44-442) immobilized (1973 RU, CM5, amine coupling), CRT injected at five increasing concentrations in single cycle kinetics mode; TBS-Ca-P; 30 µL/min; 25 °C; global fit, two-state reaction model; apparent KD; conditions: both partners purified

Row | Binder | Kd [1] | koff [1] | kon [1] | Kd [2]
1 | B1 | 45 nM | 0.001 s⁻¹ | 20000 M⁻¹ s⁻¹ | –
2 | B2 | – | – | – | 290 nM
